Source: paper doi:10.1101/2020.12.08.416511 (bioRxiv, 2020)

Biological target: human β-cardiac myosin subfragment 1 heavy chain (amino acids 1-841) (human, UniProt P12883 1-841)
Assay: pull-down

human β-cardiac myosin subfragment 1 heavy chain (amino acids 1-841), sequence (P12883 1-841): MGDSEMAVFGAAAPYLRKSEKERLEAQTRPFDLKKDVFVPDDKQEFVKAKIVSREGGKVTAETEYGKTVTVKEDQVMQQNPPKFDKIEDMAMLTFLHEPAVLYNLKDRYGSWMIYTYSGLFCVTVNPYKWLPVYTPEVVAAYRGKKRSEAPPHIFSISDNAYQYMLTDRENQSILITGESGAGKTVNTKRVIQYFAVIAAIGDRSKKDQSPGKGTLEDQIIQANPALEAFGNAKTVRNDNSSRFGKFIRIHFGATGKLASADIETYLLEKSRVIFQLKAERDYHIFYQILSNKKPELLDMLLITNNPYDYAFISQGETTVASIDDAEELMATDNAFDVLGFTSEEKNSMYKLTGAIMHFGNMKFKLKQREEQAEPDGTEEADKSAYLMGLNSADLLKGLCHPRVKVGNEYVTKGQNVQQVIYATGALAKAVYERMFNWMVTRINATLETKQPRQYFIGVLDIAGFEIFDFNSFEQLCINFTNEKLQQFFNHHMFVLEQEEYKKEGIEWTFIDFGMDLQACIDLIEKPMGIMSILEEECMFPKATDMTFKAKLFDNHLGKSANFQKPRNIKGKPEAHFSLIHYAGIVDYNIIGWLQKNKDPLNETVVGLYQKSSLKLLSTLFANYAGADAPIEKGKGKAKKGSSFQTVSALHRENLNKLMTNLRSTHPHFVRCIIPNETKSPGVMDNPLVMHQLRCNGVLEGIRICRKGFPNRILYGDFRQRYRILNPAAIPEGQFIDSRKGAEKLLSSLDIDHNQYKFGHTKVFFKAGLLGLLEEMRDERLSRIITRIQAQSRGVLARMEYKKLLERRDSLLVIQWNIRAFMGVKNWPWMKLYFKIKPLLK

B1: Alexa 488-labeled human ventricular cardiac regulatory light chain (V105C) (natural protein)
chain: MAPKKAKKRAGGANSNVFSMFEQTQIQEFKEAFTIMDQNRDGFIDKNDLRDTFAALGRVNVKNEEIDEMIKEAPGPINFTVFLTMFGEKLKGADPEETILNAFKCFDPEGKGVLKADYVREMLTTQAERFSKEEVDQMFAAFPPDVTGNLDYKNLVHIITHGEEKD
modifications: Alexa Fluor 488 C5 maleimide on the single reactive cysteine at position 105
- stoichiometry N: 1 A488RLC per M2β-S1
